Experimental data from patent publication US20090099029A1, “Methods and substrates for conducting assays” (Invitrogen Corporation, priority 2005, published 2009).

Test system: kinases of Table 6 on Myelin Basic Protein (MBP)
Experiment: Kinase assay using MBP substrate, ProQ Diamond stain (Table 6)
Format: biochemical
Settings: kinase printed on MBP-coated slide; 20 uM ATP, 30° C.; ProQ Diamond Microarray Stain; graded Strong/Weak/Negative
Method: In this illustrative example, four-well slides were designed with a hydrophobic mask surrounding 4-wells of aldehyde- or epoxy-coated glass (smooth or ES grade; Erie Scientific (Portsmouth, N.H.)). […] Bovine, dephosphorylated, Myelin Basic Protein (MBP) was purchased from Upstate Biotechnology (#13-110). MBP was diluted to 1 mg/ml in PBS, applied to the slide surface, covered with a coverslip, and left overnight at 4° C. to coat the slide with the MBP. Slides were washed 3 times with water and spun dry before printing.
Kinases were purchased from Panvera (Invitrogen, Carlsbad, Calif.), diluted in printing buffer (50 mM Tris pH 7.5, 25% glyercol, 0.05% TritonX-100, 2 mM DTT) and deposited using a GeneMachine OmniGrid100. Slides were stored at −20° C.
Reactions were performed following removal of the slide from the freezer. Reaction buffer (20 mM HEPES pH 7.5, 4 mM MgCl2, 2 mM DTT, 20 uM ATP, 5% DMSO) was added with or without inhibitor, a coverslip applied, and the slide placed at 30° C. for the appropriate reaction time. The slide was washed with water to stop the reaction (3 times) and spun dry. ProQ Diamond Microarray Stain (Invitrogen #P33706) was applied, covered with a coverslip, and the slide was incubated in the dark at room temperature for 30 minutes. The slide was destained and washed three times with water, and spun dry.
For ABL1, the “MBP Kinase Activity” value was “Weak”.
For ADRBK1(GRK2), the “MBP Kinase Activity” value was “Negative”.
In the case of AKT1, the “MBP Kinase Activity” value is reported as “Strong”.
In the case of BLK, the “MBP Kinase Activity” value is reported as “Weak”.
In the case of CDK5/p35, the “MBP Kinase Activity” value is reported as “Strong”.
With CHEK2 the “MBP Kinase Activity” value was “Strong”.
In the case of CLK1, the “MBP Kinase Activity” value is reported as “Strong”.
For CLK3, the “MBP Kinase Activity” value was “Strong”.
In the case of CLK4, the “MBP Kinase Activity” value is reported as “Negative”.
For CSNK1E(CK1eps), the “MBP Kinase Activity” value was “Negative”.
In the case of CSNK1G1(CK1gamma1), the “MBP Kinase Activity” value is reported as “Negative”.
In the case of CSNK1G2, the “MBP Kinase Activity” value is reported as “Negative”.
With CSNK1G3 the “MBP Kinase Activity” value was “Weak”.
For CSNK2A1(CK2alpha1), the “MBP Kinase Activity” value was “Strong”.
For EPHA7, the “MBP Kinase Activity” value was “Weak”.
For ERBB2, the “MBP Kinase Activity” value was “Negative”.
In the case of FGFR1, the “MBP Kinase Activity” value is reported as “Strong”.
With FGR the “MBP Kinase Activity” value was “Weak”.
For FYN, the “MBP Kinase Activity” value was “Strong”.
In the case of GRK5, the “MBP Kinase Activity” value is reported as “Negative”.
In the case of GSK3B, the “MBP Kinase Activity” value is reported as “Negative”.
In the case of HCK, the “MBP Kinase Activity” value is reported as “Strong”.
For IKBKB, the “MBP Kinase Activity” value was “Weak”.
For INSR, the “MBP Kinase Activity” value was “Strong”.
With KDR(VEGFR2) the “MBP Kinase Activity” value was “Strong”.
In the case of LCK, the “MBP Kinase Activity” value is reported as “Strong”.
For LYNA, the “MBP Kinase Activity” value was “Weak”.
With MAP2K1(MEK1) the “MBP Kinase Activity” value was “Negative”.
In the case of MAP2K2(MEK2), the “MBP Kinase Activity” value is reported as “Negative”.
With MAP4K5(KHS1) the “MBP Kinase Activity” value was “Negative”.
With MAPK1(ERK2) the “MBP Kinase Activity” value was “Strong”.
With MAPK3(ERK1) the “MBP Kinase Activity” value was “Strong”.
For MAPKAPK2, the “MBP Kinase Activity” value was “Strong”.
In the case of MLCK, the “MBP Kinase Activity” value is reported as “Negative”.
For MST4, the “MBP Kinase Activity” value was “Negative”.
With NEK6 the “MBP Kinase Activity” value was “Negative”.
For NEK7, the “MBP Kinase Activity” value was “Negative”.
In the case of NTRK1, the “MBP Kinase Activity” value is reported as “Strong”.
With NTRK2 the “MBP Kinase Activity” value was “Strong”.
With NTRK3 the “MBP Kinase Activity” value was “Strong”.
With PHKG1 the “MBP Kinase Activity” value was “Negative”.
With PIM1 the “MBP Kinase Activity” value was “Strong”.
With PIM2 the “MBP Kinase Activity” value was “Weak”.
In the case of PKN1(PRK1), the “MBP Kinase Activity” value is reported as “Strong”.
For PLK1, the “MBP Kinase Activity” value was “Negative”.
For PRKCA, the “MBP Kinase Activity” value was “Strong”.
For PRKCB1, the “MBP Kinase Activity” value was “Strong”.
For PRKCB2, the “MBP Kinase Activity” value was “Strong”.
In the case of PRKCD, the “MBP Kinase Activity” value is reported as “Strong”.
In the case of PRKCG, the “MBP Kinase Activity” value is reported as “Strong”.
For PRKCI, the “MBP Kinase Activity” value was “Strong”.
In the case of PRKCQ, the “MBP Kinase Activity” value is reported as “Strong”.
In the case of PTK6(BRK), the “MBP Kinase Activity” value is reported as “Strong”.
With RPS6KA3(RSK2) the “MBP Kinase Activity” value was “Strong”.
For RPS6KA5(MSK1), the “MBP Kinase Activity” value was “Weak”.
In the case of STK6(AuroraA), the “MBP Kinase Activity” value is reported as “Weak”.
In the case of STK24(MST3), the “MBP Kinase Activity” value is reported as “Weak”.
With STK25(YSK1) the “MBP Kinase Activity” value was “Strong”.
With TBK1 the “MBP Kinase Activity” value was “Strong”.
In the case of WEE1, the “MBP Kinase Activity” value is reported as “Negative”.
For YES1, the “MBP Kinase Activity” value was “Weak”.

Test system: 39 kinases (Table 4)
Experiment: not given
Settings: known general specificities of the inhibitors; cited from earlier work
In the case of `Oc1ccc(-c2nc(-c3ccncc3)c(-c3ccc(F)cc3)[nH]2)cc1` [SB 202190], the “General Specificity” value is listed as “Serine/threonine”.
